The values below come from the Human Domainome abundance scans (Beltran et al. 2025).

The chains are these.
B1: RanBP-type and C3HC4-type zinc finger-containing protein 1, residues 369 to 411; numbered along this chain, Q9BYM8 (parent)
chain: YHCKTPDCKGWCFFEDDVNEFTCPVCFHVNCLLCKAIHEQMNC
B2: Homeobox expressed in ES cells 1, residues 110 to 165; numbered along this chain, Q9UBX0 (parent)
chain: RPRTAFTQNQIEVLENVFRVNCYPGIDIREDLAQKLNLEEDRIQIWFQNRRAKLKR

± gives the uncertainty stated by the source.

The variants in the first data set derive from B1. Kind of data set: abundance fitness (aPCA) (normalised: wild type 0, dead -1); higher = more abundant; growth selection in yeast, the domain comes from the species named. The settings on record: Homo sapiens.
With YHCKTPDCKGWCFFEDDVNEFTCPVCFHVNCLLCKAIHEQMSC [N42S], the abundance fitness is 0.006 ± 0.042.

Regarding YHCKTPDCKGWCFFEDDVNEFTCPVCFHVNCLLCKAIHRQMNC [E39R], the abundance fitness is -0.111 ± 0.045.

As to YHCKTPDEKGWCFFEDDVNEFTCPVCFHVNCLLCKAIHEQMNC [C8E], the abundance fitness is -0.784 ± 0.13.

For YHCKTPDGKGWCFFEDDVNEFTCPVCFHVNCLLCKAIHEQMNC [C8G], the abundance fitness is -0.691 ± 0.045.

For YHCKTPDCKGWCFFEDDVNEFTCPVCFHVNCELCKAIHEQMNC [L32E], the abundance fitness is -0.366 ± 0.045.

In another data set the parent is B2. The data set is described as above. The following applies: Homo sapiens.
As to K53T, the abundance fitness is -0.115 ± 0.14.

Consider K53C, for which the abundance fitness was -0.459 ± 0.18.

Take K53Y: the abundance fitness is -0.492 ± 0.15.

As to K53F, the abundance fitness is -0.326 ± 0.37.

For the variant K53E, the abundance fitness was 0.176 ± 0.15.

For K53G, the abundance fitness was -0.141 ± 0.079.

With K53S, the abundance fitness is -0.017 ± 0.083.

In the case of K53N, the abundance fitness was -0.284 ± 0.41.

For the variant K53Q, the abundance fitness turned out to be 0.267 ± 0.13.

On to K53I, for which the abundance fitness was -0.156 ± 0.24.

In the case of K53W, the abundance fitness was -0.405 ± 0.16.

On to K53L, for which the abundance fitness is -0.067 ± 0.071.

As for K53M, the abundance fitness was -0.075 ± 0.15.

For K53R, the abundance fitness amounted to 0.059 ± 0.086.

Turning to K53P, the abundance fitness is -0.345 ± 0.29.

For the variant K53D, the abundance fitness was -0.067 ± 0.26.

Turning to K53V, the abundance fitness is -0.229 ± 0.19.

N37C: the abundance fitness is -0.18 ± 0.065.

As to N37L, the abundance fitness is -0.312 ± 0.13.

Regarding N37Q, the abundance fitness was -0.189 ± 0.085.

N37K: the abundance fitness was -0.032 ± 0.079.

On to N37W, for which the abundance fitness was -0.863 ± 0.47.

Take N37D: the abundance fitness was -0.151 ± 0.31.

In the case of N37I, the abundance fitness is -0.431 ± 0.38.

In the case of N37Y, the abundance fitness is -0.634 ± 0.15.

N37P: the abundance fitness is -0.051 ± 0.23.

Regarding N37F, the abundance fitness was -0.195 ± 0.23.

As to N37E, the abundance fitness was -0.138 ± 0.13.

As for N37S, the abundance fitness is -0.459 ± 0.22.

Take N37G: the abundance fitness worked out at 0.093 ± 0.098.

For the variant N37T, the abundance fitness is -0.258 ± 0.12.

For the variant N37M, the abundance fitness is -0.613 ± 0.36.

With N37H, the abundance fitness was -0.343 ± 0.3.

Consider I45W, for which the abundance fitness is 0.444 ± 0.15.

Regarding I45K, the abundance fitness was 0.193 ± 0.19.

Consider I45G, for which the abundance fitness was -0.031 ± 0.083.

On to I45D, for which the abundance fitness was found to be 0.052 ± 0.2.

I45C: the abundance fitness came to 0.196 ± 0.14.

Regarding I45Y, the abundance fitness was determined as 0.019 ± 0.26.

In the case of I45F, the abundance fitness came to 0.157 ± 0.21.

Turning to I45L, the abundance fitness was -0.026 ± 0.1.

As for I45N, the abundance fitness turned out to be 0.166 ± 0.2.

In the case of I45T, the abundance fitness was determined as 0.114 ± 0.11.

For I45H, the abundance fitness is -0.166 ± 0.12.

In the case of I45Q, the abundance fitness is 0.108 ± 0.069.

On to I45M, for which the abundance fitness is -0.049 ± 0.097.

For I45R, the abundance fitness was found to be 0.033 ± 0.099.

As for I45E, the abundance fitness is 0.079 ± 0.13.

Regarding E40D, the abundance fitness is -0.119 ± 0.18.

As to E40G, the abundance fitness is -0.399 ± 0.13.

As to E40L, the abundance fitness was -0.338 ± 0.13.

Take E40F: the abundance fitness was -0.078 ± 0.17.

Consider E40V, for which the abundance fitness was -0.244 ± 0.13.

As to E40I, the abundance fitness is -0.205 ± 0.19.

On to E40A, for which the abundance fitness turned out to be 0.052 ± 0.091.

Turning to E40Y, the abundance fitness is -0.57 ± 0.12.

Regarding E40Q, the abundance fitness was -0.047 ± 0.14.

Turning to E40S, the abundance fitness is -0.162 ± 0.1.

As for E40R, the abundance fitness was -0.167 ± 0.091.

With E40T, the abundance fitness was -0.124 ± 0.11.

With E40W, the abundance fitness was -0.928 ± 0.39.

As to E40K, the abundance fitness is -0.611 ± 0.26.

In the case of E40N, the abundance fitness is -0.614 ± 0.31.

As to E40C, the abundance fitness is -0.348 ± 0.076.

With E40H, the abundance fitness is -0.282 ± 0.17.

With L54G, the abundance fitness was determined as 0.319 ± 0.1.

As for L54A, the abundance fitness is -0.34 ± 0.12.

Consider L54F, for which the abundance fitness is 0.312 ± 0.17.

Turning to L54K, the abundance fitness was -0.119 ± 0.14.

As for L54R, the abundance fitness is -0.596 ± 0.079.

Turning to L54V, the abundance fitness is -0.082 ± 0.13.

As for L54W, the abundance fitness was -0.205 ± 0.084.

Turning to L54M, the abundance fitness was -0.195 ± 0.22.

Consider L54Q, for which the abundance fitness came out at 0.01 ± 0.16.

L54D: the abundance fitness is -0.071 ± 0.13.

With L54P, the abundance fitness was determined as 0.222 ± 0.19.

Turning to L54I, the abundance fitness turned out to be 0.074 ± 0.08.

As to L54C, the abundance fitness was -0.031 ± 0.11.

Consider L54E, for which the abundance fitness was found to be 0.203 ± 0.085.

Turning to Q48G, the abundance fitness is -0.461 ± 0.092.

Take Q48H: the abundance fitness is -0.287 ± 0.33.

Turning to Q48T, the abundance fitness came out at 0.299 ± 0.14.

Consider Q48M, for which the abundance fitness was -0.073 ± 0.097.

Q48N: the abundance fitness is -0.307 ± 0.34.

As to Q48V, the abundance fitness was -0.026 ± 0.12.

On to Q48S, for which the abundance fitness was -0.001 ± 0.14.

As to Q48I, the abundance fitness was -0.23 ± 0.22.

As for Q48A, the abundance fitness was found to be 0.233 ± 0.13.

For Q48E, the abundance fitness was -0.098 ± 0.12.

As to Q48R, the abundance fitness worked out at 0.142 ± 0.12.

Turning to Q48P, the abundance fitness is -0.658 ± 0.5.

On to Q48K, for which the abundance fitness turned out to be 0.114 ± 0.17.

Q48C: the abundance fitness was -0.466 ± 0.17.

Consider W46H, for which the abundance fitness was -0.58 ± 0.36.

In the case of W46C, the abundance fitness was -1.15 ± 0.25.

Take W46G: the abundance fitness was -1.07 ± 0.18.

Consider W46S, for which the abundance fitness is -0.595 ± 0.26.

With W46E, the abundance fitness was -0.751 ± 0.31.

For the variant W46D, the abundance fitness was -0.428 ± 0.4.

With W46P, the abundance fitness is -0.361 ± 0.26.

On to W46V, for which the abundance fitness is -0.928 ± 0.29.

As for W46K, the abundance fitness was -0.925 ± 0.44.

In the case of W46T, the abundance fitness is -0.721 ± 0.36.

In the case of W46A, the abundance fitness is -0.693 ± 0.1.

As for W46F, the abundance fitness is -0.547 ± 0.33.

In the case of W46L, the abundance fitness was -0.895 ± 0.29.

In the case of W46Y, the abundance fitness turned out to be 0.48 ± 0.26.

For the variant R51I, the abundance fitness is -0.336 ± 0.31.

Regarding R51G, the abundance fitness was -0.671 ± 0.18.

Take R51D: the abundance fitness came to 0.168 ± 0.45.

Take R51K: the abundance fitness is -0.577 ± 0.27.

R51T: the abundance fitness was -0.301 ± 0.23.

For the variant R51S, the abundance fitness is -0.491 ± 0.27.

For R51M, the abundance fitness is -0.109 ± 0.12.

On to R51C, for which the abundance fitness was -0.368 ± 0.12.

With R51N, the abundance fitness is -0.131 ± 0.19.

R51V: the abundance fitness was -0.243 ± 0.079.

On to R51Y, for which the abundance fitness was -0.782 ± 0.16.

R51A: the abundance fitness was -0.424 ± 0.17.

In the case of R51L, the abundance fitness was -0.752 ± 0.24.

Regarding R51E, the abundance fitness is -0.632 ± 0.12.

In the case of R51Q, the abundance fitness is -0.43 ± 0.3.

For A52V, the abundance fitness is -0.348 ± 0.076.

For the variant A52G, the abundance fitness is -0.205 ± 0.12.

Take A52E: the abundance fitness worked out at 0.059 ± 0.19.

Take A52M: the abundance fitness was -0.269 ± 0.26.

A52H: the abundance fitness is -0.05 ± 0.21.

In the case of A52W, the abundance fitness is -0.505 ± 0.15.

Turning to A52N, the abundance fitness is -0.03 ± 0.17.

For the variant A52L, the abundance fitness is -0.499 ± 0.25.

Turning to A52D, the abundance fitness is -0.044 ± 0.22.

On to A52K, for which the abundance fitness is -0.064 ± 0.086.

A52F: the abundance fitness was -0.361 ± 0.15.

For A52C, the abundance fitness was -0.143 ± 0.17.

In the case of A52R, the abundance fitness was -0.194 ± 0.14.

Consider A52T, for which the abundance fitness came to 0.172 ± 0.13.

Take A52S: the abundance fitness is -0.104 ± 0.19.

Take R56W: the abundance fitness was found to be 0.617 ± 0.15.

Consider R56G, for which the abundance fitness was determined as 0.104 ± 0.25.

In the case of R56C, the abundance fitness amounted to 0.033 ± 0.1.

Regarding R56V, the abundance fitness was -0.171 ± 0.27.

On to R56D, for which the abundance fitness came out at 0.686 ± 0.31.

As for K35H, the abundance fitness is -0.651 ± 0.47.

With K35P, the abundance fitness was -1.15 ± 0.3.

In the case of K35R, the abundance fitness is -0.194 ± 0.075.

As for K35F, the abundance fitness was -0.603 ± 0.28.

As for K35C, the abundance fitness was -0.515 ± 0.3.

K35Q: the abundance fitness was -0.197 ± 0.19.

In the case of K35N, the abundance fitness is -0.317 ± 0.15.

For K35M, the abundance fitness was -0.377 ± 0.1.

K35W: the abundance fitness is -0.743 ± 0.11.

Regarding K35S, the abundance fitness is -0.487 ± 0.14.

Regarding K35I, the abundance fitness is -0.468 ± 0.18.

As for K35V, the abundance fitness is -0.694 ± 0.18.

In the case of K35Y, the abundance fitness is -0.364 ± 0.29.

Turning to K35E, the abundance fitness worked out at 0.05 ± 0.13.

With K35G, the abundance fitness was -0.657 ± 0.14.

Turning to F47I, the abundance fitness is -0.449 ± 0.18.
